# B1: pyocin R2 tube protein (natural protein)
# chain: MIPQTLTNTNLFIDGVSFAGDVPSLTLPKLAVKTEQYRAGGMDAPVSIDMGLEAMEAKFSTNGARREALNFFGLADQSAFNGVFRGSFKGQKGASVPVVATLRGLLKEVDPGDWKAGEKAEFKYAVAVSYYKLEVDGREVYEIDPVNGVRAINGVDQLAGMRNDLGL
# B2: pyocin R2 sheath protein (natural protein)
# chain: MSFFHGVTVTNVDIGARTIALPASSVIGLCDVFTPGAQASAKPNVPVLLTSKKDAAAAFGIGSSIYLACEAIYNRAQAVIVAVGVETAETPEAQASAVIGGISAAGERTGLQALLDGKSRFNAQPRLLVAPGHSAQQAVATAMDGLAEKLRAIAILDGPNSTDEAAVAYAKNFGSKRLFMVDPGVQVWDSATNAARNAPASAYAAGLFAWTDAEYGFWSSPSNKEIKGVTGTSRPVEFLDGDETCRANLLNNANIATIIRDDGYRLWGNRTLSSDSKWAFVTRVRTMDLVMDAILAGHKWAVDRGITKTYVKDVTEGLRAFMRDLKNQGAVINFEVYADPDLNSASQLAQGKVYWNIRFTDVPPAENPNFRVEVTDQWLTEVLDVA
# Target: the molecule itself
# Test: cryo-EM structure
Protein,stoichiometry N,binding result
B1,6,
B2,,binds
